Measurements taken from patent publication US8716556.

Target: MYB96 (Arabidopsis thaliana) (UniProt Q24JK1)
Test: cell_activity
Settings: GUS reporter activation in Arabidopsis protoplasts

Chain of UniProt Q24JK1 (Q24JK1 whole entry): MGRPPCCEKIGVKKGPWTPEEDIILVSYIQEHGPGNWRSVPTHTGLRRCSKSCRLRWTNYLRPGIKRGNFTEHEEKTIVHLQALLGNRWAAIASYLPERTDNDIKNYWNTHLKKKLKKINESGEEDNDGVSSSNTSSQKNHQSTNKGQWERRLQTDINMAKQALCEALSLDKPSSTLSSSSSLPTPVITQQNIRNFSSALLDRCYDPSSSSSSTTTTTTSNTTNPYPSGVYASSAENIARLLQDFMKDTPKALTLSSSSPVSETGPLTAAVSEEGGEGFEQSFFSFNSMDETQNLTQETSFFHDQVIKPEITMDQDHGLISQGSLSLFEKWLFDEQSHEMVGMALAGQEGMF

KCS1-BS in pKCS-P reporter was tested, and the activity was greater than 6 fold.
